Legend:
[1] = molecular target: BG505 SOSIP.664 soluble HIV-1 Env trimer (HIV-1 (strain BG505)) (UniProt Q2N0S6); experiment: cryo-EM structure
[2] = molecular target: BG505 SOSIP.664 soluble HIV-1 Env trimer (HIV-1 (strain BG505)) (UniProt Q2N0S6); experiment: negative-stain single-particle EM
[3] = molecular target: BG505 SOSIP-sCD4 complex (HIV-1 (strain BG505) | human) (UniProt Q2N0S6); experiment: cryo-EM structure
[4] = molecular target: BG505 SOSIP-sCD4 complex (HIV-1 (strain BG505) | human) (UniProt Q2N0S6); experiment: negative-stain single-particle EM

Substance: sCD4 (CD4 domains 1 and 2) (domain or fragment)
- stoichiometry N (sCD4 per trimer) [1]: 3
- stoichiometry N (copies per trimer) [2]: 3

Substance: 17b Fab (CD4-induced antibody)
- stoichiometry N (Fabs per trimer) [3]: 3
- stoichiometry N (copies per trimer) [4]: 3
